Patent publication US20150307603A1 (MODIQUEST B V, published 2015)
Non-standard residues stand in square brackets, D forms with d. No end group written: not given here. Cit = NC(=O)NCCC[C@H](N)C(=O)O

Assays:
CFC-1 [1] = biological target: T1, CFC-1; assay: ELISA, Ab 2 ug/well
T1 construct: Positive control for anti-citrulline reactivity; also called cfc1 XG; Cfc1-peptide
Description: (§1) The resulting OD (y-axis) is a measure for antibody binding. H1-recombinant histone 1; H1/p2-huPAD2 recombinant histone 1; H1/p4-huPAD4 recombinant histone 1, and so forth (x-axis).

[2] = biological target: T2, huPAD4-deiminated human recombinant histone 2A (human); assay: ELISA, Ab 2 ug/well
T2 construct: also called H2A/p4; histone 2A/p4
Description: as §1

[3] = biological target: T3, huPAD4-deiminated human recombinant histone 2B (human); assay: ELISA, Ab 2 ug/well
T3 construct: also called H2B/p4
Description: as §1

[4] = biological target: T4, human recombinant histone 4 (human, UniProt P62805 2-103); assay: ELISA, Ab 0.00064 ug/well
Description: as §1

CFC-1 [5] = biological target: T1, CFC-1; assay: ELISA, Ab 0.00064 ug/well
Description: as §1

[6] = biological target: T5, human recombinant histone 2B (human); assay: ELISA, Ab 0.00064 ug/well
T5 construct: Non-deiminated; also called H2B
Description: as §1

[7] = biological target: T6, human recombinant histone 2A (human); assay: ELISA, Ab 0.00064 ug/well
T6 construct: Non-deiminated; also called H2A
Description: as §1

[8] = biological target: T7, huPAD2-deiminated human recombinant histone 2B (human); assay: ELISA, Ab 0.00064 ug/well
T7 construct: also called H2B/p2
Description: as §1

[9] = biological target: T2, huPAD4-deiminated human recombinant …; assay: ELISA, Ab 0.00064 ug/well
Description: as §1

[10] = biological target: T8, huPAD2-deiminated human recombinant histone 2A (human); assay: ELISA, Ab 0.00064 ug/well
T8 construct: also called H2A/p2; histone 2A/p2
Description: as §1

[11] = biological target: T3, huPAD4-deiminated human recombinant …; assay: ELISA, Ab 0.00064 ug/well
Description: as §1

msVim XS/XL = biological target: T9, msVim XS/XL (mouse, also: biotin-labelled); assay: ELISA, Ab 0.000128 ug/well
T9 construct: also called mouse vimentin peptide
T9 peptide: YVT[Cit]SSAV[Cit]L[Cit]SSVP
Description: (§2) Biotin and citrulline-containing peptides derived from fibrinogen and vimentin were immobilized on NEUTRAVIDIN®-coated 96-well ELISA plates (0.3 μg/well). CFC-1 and CFC-0 were coated at the same concentration and served as positive and negative controls, respectively, for specific anti-citrulline reactivity and as coating controls. Non-coated wells were used to test for aspecific binding of the antibodies. […] Detection of bound anti-citrulline antibodies was performed by incubating the wells with rabbit anti-human HRP (1:2000) for 1 hour at RT followed by incubation with TMB substrate. The resulting OD (y-axis) is a measure for antibody binding.
(§3) Biotin-labeled and citrulline-containing fibrinogen and vimentin peptides (Table 5) were also tested for reactivity with the therapeutic antibodies. Peptides were coated on 96-well NEUTRAVIDIN®-ELISA plates.

huFibα XG = biological target: T10, huFibα XG (human, X at position 8 = citrulline; biotin-labelled); assay: ELISA, Ab 0.000128 ug/well
T10 peptide: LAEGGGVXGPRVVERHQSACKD
Description: as §2, §3

CFC-1 [12] = biological target: T1, CFC-1; assay: ELISA, Ab 0.000128 ug/well
Description: as §2, §3

msFibα XG = biological target: T11, msFibα XG (mouse, X at position 8 = citrulline; biotin-labelled); assay: ELISA, Ab 0.000128 ug/well
T11 peptide: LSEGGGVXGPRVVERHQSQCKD
Description: as §2, §3

msFibβ XG = biological target: T12, msFibβ XG (mouse, also: biotin-labelled); assay: ELISA, Ab 0.000128 ug/well
T12 construct: also called mouse fibrinogen β peptide
T12 peptide: EPTDSLDA[Cit]GHRPVDRR
Description: as §2, §3

msFibα XH = biological target: T13, msFibα XH (mouse, X at position 15 = citrulline; biotin-labelled); assay: ELISA, Ab 0.000128 ug/well
T13 peptide: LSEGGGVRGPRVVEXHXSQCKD
Description: as §2, §3

[13] = biological target: T4, human recombinant histone 4; assay: ELISA, Ab 10 ug/well
Description: as §1

CFC-1 [14] = biological target: T1, CFC-1; assay: ELISA, Ab 10 ug/well
Description: as §1

[15] = biological target: T5, human recombinant histone 2B; assay: ELISA, Ab 10 ug/well
Description: as §1

[16] = biological target: T14, huPAD2-deiminated human recombinant histone 3 (human); assay: ELISA, Ab 10 ug/well
T14 construct: also called H3/p2; histone 3/p2
Description: as §1

[17] = biological target: T6, human recombinant histone 2A; assay: ELISA, Ab 10 ug/well
Description: as §1

[18] = biological target: T15, huPAD4-deiminated human recombinant histone 3 (human); assay: ELISA, Ab 10 ug/well
T15 construct: also called H3/p4
Description: as §1

[19] = biological target: T7, huPAD2-deiminated human recombinant …; assay: ELISA, Ab 10 ug/well
Description: as §1

[20] = biological target: T2, huPAD4-deiminated human recombinant …; assay: ELISA, Ab 10 ug/well
Description: as §1

[21] = biological target: T8, huPAD2-deiminated human recombinant …; assay: ELISA, Ab 10 ug/well
Description: as §1

[22] = biological target: T3, huPAD4-deiminated human recombinant …; assay: ELISA, Ab 10 ug/well
Description: as §1

[23] = biological target: T4, human recombinant histone 4; assay: ELISA, Ab 0.000128 ug/well
Description: as §1

[24] = biological target: T5, human recombinant histone 2B; assay: ELISA, Ab 0.000128 ug/well
Description: as §1

[25] = biological target: T14, huPAD2-deiminated human recombinant …; assay: ELISA, Ab 0.000128 ug/well
Description: as §1

[26] = biological target: T15, huPAD4-deiminated human recombinant …; assay: ELISA, Ab 0.000128 ug/well
Description: as §1

[27] = biological target: T7, huPAD2-deiminated human recombinant …; assay: ELISA, Ab 0.000128 ug/well
Description: as §1

[28] = biological target: T8, huPAD2-deiminated human recombinant …; assay: ELISA, Ab 0.000128 ug/well
Description: as §1

[29] = biological target: T3, huPAD4-deiminated human recombinant …; assay: ELISA, Ab 0.000128 ug/well
Description: as §1

B1: RhmAb2.102 (antibody, human IgG1, lambda)
heavy: not shown
light: QSVLTQPPSMSAAPGQKVTISCSGSSSNIGNNYVSWYQQVPGTAPKLLIYDDNKRPSGIPGRFSGSKSATSATLGITGLQAGDEADYYCGSWDDNLSVVLFGGGTKLTVLGQPKAAPSVTLFPPSSEELQANKATLVCLISDFYPGAVTVAWKADSSPVKAGVETTTPSKQSNNKYAASSYLSLTPEQWKSHRSYSCQVTHEGSTVEKTVAPTECS
notes: Human IgG1 lambda; also called Rhm2.102
- OD (CFC-1 [1]): 3.38 OD450
- OD [2]: 3.13 OD450
- OD [3]: 0.069 OD450
- OD [4]: 0.06 OD450
- OD (CFC-1 [5]): 0.077 OD450
- OD [6]: 0.052 OD450
- OD [7]: 0.057 OD450
- OD [8]: 0.052 OD450
- OD [9]: 0.075 OD450
- OD [10]: 0.077 OD450
- OD [11]: 0.055 OD450
- OD (msVim XS/XL): 0.133 OD450
- OD (huFibα XG): 0.115 OD450
- OD (CFC-1 [12]): 0.288 OD450
- OD (msFibα XG): 0.119 OD450
- OD (msFibβ XG): 0.118 OD450
- OD (msFibα XH): 0.089 OD450
- OD [13]: 0.825 OD450
- OD (CFC-1 [14]): 3.48 OD450
- OD [15]: 0.247 OD450
- OD [16]: 2.44 OD450
- OD [17]: 0.428 OD450
- OD [18]: 1.31 OD450
- OD [19]: 0.31 OD450
- OD [20]: 3.42 OD450
- OD [21]: 3.41 OD450
- OD [22]: 0.229 OD450
- OD [23]: 0.06 OD450
- OD [24]: 0.052 OD450
- OD [25]: 0.066 OD450
- OD [26]: 0.06 OD450
- OD [27]: 0.051 OD450
- OD [28]: 0.063 OD450
- OD [29]: 0.053 OD450
